Source: PMC9609871, “Binding and Kinetic Analysis of Human Protein Phosphatase PP2A Interactions with Caspase 9 Protein and the Interfering Peptide C9h” (Pharmaceutics, 2022)
Like-named read-outs stand apart in the source and are kept apart here.

Target: T1, PP2A (Homo sapiens, UniProt P67775)
T1 construct: purchased LSBio
Test: BLI: PP2A analyte binding to immobilized Caspase 9 (Protein A biosensor, anti-Caspase 9)
Procedure: Kinetic analysis was performed based on biolayer interferometry (BLI) by using a BLItz instrument (ForteBio, Bayonne, France) at room temperature. Prior to use, each biosensor was hydrated in sample diluent (SD: PBS1X, pH 7.0, 0.02% Tween 20, 0.1% BSA) for at least 10 min. Kinetic measurements of PP2A/Caspase 9 interactions were run with Protein A biosensors (Fortebio) and consisted of seven steps, all performed in reaction buffer, as follows: (i) initial baseline in 300 µL SD for 30 s was measured; (ii) 4 µL of mouse anti-Caspase 9 or rabbit anti-PP2A were immobilized on the sensor for 150 s at 133 nM; (iii) the immunosensor was washed with 300 µL SD for 120 s; (iv) 4 µL of purified ligand Caspase 9 at 566 nM (Origen) or PP2A at 694 nM (LSBio) were loaded on the immunosensor for 150 s; (v) the ligand-coated immunosensor was washed with 300 µL SD for 120 s; (vi) association of purified analytes diluted in SD at the mentioned concentrations was studied for 150 s in 4 µL; and (vii) dissociation step was then monitored in 300 µL SD for 120 s.
Experiments using empty immunosensors (no ligand loaded) were run as control. Sensorgrams were fit globally to a 1:1 binding model by BLItz Pro software, from which the association (kon) and dissociation (koff) rate constants and apparent affinities (KD) were calculated. […]

T1 sequence (P67775 whole entry): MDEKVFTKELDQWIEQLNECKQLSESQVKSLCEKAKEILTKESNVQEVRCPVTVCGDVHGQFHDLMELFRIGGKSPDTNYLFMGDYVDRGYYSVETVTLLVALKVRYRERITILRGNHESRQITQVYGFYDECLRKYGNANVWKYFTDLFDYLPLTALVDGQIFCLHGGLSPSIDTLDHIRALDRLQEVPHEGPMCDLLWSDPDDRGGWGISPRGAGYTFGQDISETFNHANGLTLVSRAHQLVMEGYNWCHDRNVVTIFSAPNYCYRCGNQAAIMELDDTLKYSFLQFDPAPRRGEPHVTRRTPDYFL

B1: Caspase 9: purified Caspase 9 protein (Origen), cysteine protease, initiator of intrinsic apoptosis (protein)
chain: MDEADRRLLRRCRLRLVEELQVDQLWDALLSRELFRPHMIEDIQRAGSGSRRDQARQLIIDLETRGSQALPLFISCLEDTGQDMLASFLRTNRQAAKLSKPTLENLTPVVLRPEIRKPEVLRPETPRPVDIGSGGFGDVGALESLRGNADLAYILSMEPCGHCLIINNVNFCRESGLRTRTGSNIDCEKLRRRFSSLHFMVEVKGDLTAKKMVLALLELAQQDHGALDCCVVVILSHGCQASHLQFPGAVYGTDGCPVSVEKIVNIFNGTSCPSLGGKPKLFFIQACGGEQKDHGFEVASTSPEDESPGSNPEPDATPFQEGLRTFDQLDAISSLPTPSDIFVSYSTFPGFVSWRDPKSGSWYVETLDDIFEQWAHSEDLQSLLLRVANAVSVKGIYKQMPGCFNFLRKKLFFKTS
modifications: Commercial purified Caspase 9 (Origen)
Kd (discussion summary of PP2A/Caspase 9 BLI studies, in the range of, read-out: binding affinity of PP2A to Caspase 9): ~150 nM
Kd (summary: close to, PP2A analyte on immobilized Caspase 9, read-out: affinity, both models): ~100 nM
